Data on one molecule can be found in patent publication US20170056488A1.

The test concerns the target HLA-A*02 (human). The test can be described thus: UV ligand exchange, anti-b2m ELISA; exchange yield grade.

Molecule VLLRVLIL returned a peptide exchange yield of 20 to 49%.
